From doi:10.1101/2025.06.14.659634 (bioRxiv, 2025)

B1: erlin2 with a C-terminal Flag tag, overexpressed alone (natural protein, human, UniProt O94905 1-339, looked up)
chain: MAQLGAVVAVASSFFCASLFSAVHKIEEGHIGVYYRGGALLTSTSGPGFHLMLPFITSYKSVQTTLQTDEVKNVPCGTSGGVMIYFDRIEVVNFLVPNAVYDIVKNYTADYDKALIFNKIHHELNQFCSVHTLQEVYIELFDQIDENLKLALQQDLTSMAPGLVIQAVRVTKPNIPEAIRRNYELMESEKTKLLIAAQKQKVVEKEAETERKKALIEAEKVAQVAEITYGQKVMEKETEKKISEIEDAAFLAREKAKADAECYTAMKIAEANKLKLTPEYLQLMKYKAIASNSKIYFGKDIPNMFMDSAGSVSKQFEGLADKLSFGLEDEPLETATKEN
B2: erlin1 with a C-terminal Flag tag, overexpressed alone (natural protein, human, UniProt O75477 1-348, looked up)
chain: MNMTQARVLVAAVVGLVAVLLYASIHKIEEGHLAVYYRGGALLTSPSGPGYHIMLPFITTFRSVQTTLQTDEVKNVPCGTSGGVMIYIDRIEVVNMLAPYAVFDIVRNYTADYDKTLIFNKIHHELNQFCSAHTLQEVYIELFDQIDENLKQALQKDLNLMAPGLTIQAVRVTKPKIPEAIRRNFELMEAEKTKLLIAAQKQKVVEKEAETERKKAVIEAEKIAQVAKIRFQQKVMEKETEKRISEIEDAAFLAREKAKADAEYYAAHKYATSNKHKLTPEYLELKKYQAIASNSKIYFGSNIPNMFVDSSCALKYSDIRTGRESSLPSKEALEPSGENVIQNKESTG
B3: erlin1 fused with a twin-Strep tag, co-expressed with erlin2 through a P2A sequence (natural protein, human, UniProt O75477 1-348, looked up)
chain: B2 chain
modifications: N108 glycosylated (seen in the density map); intramolecular disulfide bond C78-C130

What was measured:
[1] = molecular target: the molecule itself; assay: glycerol density gradient centrifugation
cryo-EM structure = molecular target: the molecule itself; assay: cryo-EM structure

| Protein | binding result [1] | binding result (cryo-EM structure) |
| --- | --- | --- |
| B1 | binds |  |
| B2 | binds |  |
| B3 |  | binds |
